± gives the standard deviation of the averaged measurements.
B1: library; a variant is named by its letters at N, in order (parent)
chain: GCUGUCACCGAGAAACUGUGAAGUAUAUCUUAAACCUGGGCACUUAAAAGAUAUAUGGAGUUAGUAGUGCAACCUGCUCGGUCUGAUGAGUCCNNNNNNGGACGAAACAGC

Legend:
cyclic di-GMP [1] = variants of: B1; assay: FACS-Seq fitted mean relative fluorescence mCherry/BFP without ligand (log10 relative fluorescence); HEK293T; ligand: cyclic di-GMP (c-di-GMP-II aptamer); higher = higher reporter protein expression; settings: ligand present: no
Method in brief: (§1)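 To measure fluorescence, a normal distribution was fitted to read counts across sorted bins. The reporter libraries were HEK293T cells transduced by lentivirus with mCherry under ribozyme-switch control and an EF1α-BFP marker, enriched and then kept with or without ligand for 48 h. Sorting used 6 mCherry/BFP bins, and bin genomic DNA was PCR-amplified and sequenced on MiSeq. Fitted means of log10(mCherry/BFP) were scaled to five spiked-in control ribozymes.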

cyclic di-GMP [2] = variants of: B1; assay: normalized RNA/DNA level without ligand (relative to sTRSVctl = 100) (log10 (% of sTRSVctl)); HEK293T; ligand: cyclic di-GMP (c-di-GMP-II aptamer); higher = less ribozyme self-cleavage, higher mRNA level; settings: reporter: mCherry (pCS4076), ligand present: no
Method in brief: (§2)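 HEK293T cells received ligand, where used, 1 h before being transfected with 4 µg per 6-well well of library plasmids encoding reporter-linked ribozyme switches. After 72 h, RNA was extracted with EDTA and sequenced. RNA level was derived from RNA reads per DNA read, normalized to a spiked-in non-cleaving sequence or the top sequences, then scaled and log-transformed. Values were ×100 then log10, the top set was 25 sequences, and the minimum was 100 DNA reads.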

cyclic di-GMP [3] = variants of: B1; assay: FACS-Seq fitted mean relative fluorescence mCherry/BFP with ligand (log10 relative fluorescence); HEK293T; ligand: cyclic di-GMP (c-di-GMP-II aptamer); ligand concentration (+) FACS-Seq: 1 mM; higher = higher reporter protein expression; settings: ligand present: yes
Method in brief: as §1

cyclic di-GMP [4] = variants of: B1; assay: normalized RNA/DNA level with ligand (relative to sTRSVctl = 100) (log10 (% of sTRSVctl)); HEK293T; ligand: cyclic di-GMP (c-di-GMP-II aptamer); ligand concentration (+) RNA-Seq: 1 mM; higher = less ribozyme self-cleavage, higher mRNA level; settings: reporter: mCherry (pCS4076), ligand present: yes
Method in brief: as §2

Variant	FACS-Seq fitted mean (log10) (cyclic di-GMP [1])	normalized RNA/DNA level without ligand (log10) (cyclic di-GMP [2])	FACS-Seq fitted mean (log10) (cyclic di-GMP [3])	normalized RNA/DNA level with ligand (log10) (cyclic di-GMP [4])
GCUGUCACCGAGAAACUGUGAAGUAUAUCUUAAACCUGGGCACUUAAAAGAUAUAUGGAGUUAGUAGUGCAACCUGCUCGGUCUGAUGAGUCCCUUUCCGGACGAAACAGC [CUUUCC]	0.0673 ± 0.015	1.82 ± 0.038	0.163 ± 0.01	1.93 ± 0.11
GCUGUCACCGAGAAACUGUGAAGUAUAUCUUAAACCUGGGCACUUAAAAGAUAUAUGGAGUUAGUAGUGCAACCUGCUCGGUCUGAUGAGUCCUCGGCUGGACGAAACAGC [UCGGCU]	-0.103 ± 0.0013	1.77 ± 0.036	0.114 ± 0.004	1.88 ± 0.089
GCUGUCACCGAGAAACUGUGAAGUAUAUCUUAAACCUGGGCACUUAAAAGAUAUAUGGAGUUAGUAGUGCAACCUGCUCGGUCUGAUGAGUCCAAUAGAGGACGAAACAGC [AAUAGA]	-0.609 ± 0.01	1.39 ± 0.12	-0.411 ± 0.015	1.58 ± 0.08
GCUGUCACCGAGAAACUGUGAAGUAUAUCUUAAACCUGGGCACUUAAAAGAUAUAUGGAGUUAGUAGUGCAACCUGCUCGGUCUGAUGAGUCCUGAAAUGGACGAAACAGC [UGAAAU]	-0.0172 ± 0.1	1.66 ± 0.043	0.368 ± 0.014	1.84 ± 0.14
GCUGUCACCGAGAAACUGUGAAGUAUAUCUUAAACCUGGGCACUUAAAAGAUAUAUGGAGUUAGUAGUGCAACCUGCUCGGUCUGAUGAGUCCCAACCUGGACGAAACAGC [CAACCU]	-0.206 ± 0.19	1.56 ± 0.069	-0.0641 ± 0.21	1.74 ± 0.096
GCUGUCACCGAGAAACUGUGAAGUAUAUCUUAAACCUGGGCACUUAAAAGAUAUAUGGAGUUAGUAGUGCAACCUGCUCGGUCUGAUGAGUCCAUACAAGGACGAAACAGC [AUACAA]	-0.183 ± 0.011	1.54 ± 0.048	0.0162 ± 0.13	1.73 ± 0.099
GCUGUCACCGAGAAACUGUGAAGUAUAUCUUAAACCUGGGCACUUAAAAGAUAUAUGGAGUUAGUAGUGCAACCUGCUCGGUCUGAUGAGUCCGCGUUUGGACGAAACAGC [GCGUUU]	-0.452 ± 0.069	1.6 ± 0.026	-0.302 ± 0.06	1.77 ± 0.14
GCUGUCACCGAGAAACUGUGAAGUAUAUCUUAAACCUGGGCACUUAAAAGAUAUAUGGAGUUAGUAGUGCAACCUGCUCGGUCUGAUGAGUCCAACCCCGGACGAAACAGC [AACCCC]	-0.0752 ± 0.016	1.78 ± 0.046	0.263 ± 0.041	1.89 ± 0.14
GCUGUCACCGAGAAACUGUGAAGUAUAUCUUAAACCUGGGCACUUAAAAGAUAUAUGGAGUUAGUAGUGCAACCUGCUCGGUCUGAUGAGUCCUUCGUGGGACGAAACAGC [UUCGUG]	-0.959 ± 0.031	1.71 ± 0.022	-0.86 ± 0.094	1.86 ± 0.1
GCUGUCACCGAGAAACUGUGAAGUAUAUCUUAAACCUGGGCACUUAAAAGAUAUAUGGAGUUAGUAGUGCAACCUGCUCGGUCUGAUGAGUCCACGUGGGGACGAAACAGC [ACGUGG]	-0.532 ± 0.088	1.56 ± 0.11	-0.352 ± 0.032	1.74 ± 0.058
GCUGUCACCGAGAAACUGUGAAGUAUAUCUUAAACCUGGGCACUUAAAAGAUAUAUGGAGUUAGUAGUGCAACCUGCUCGGUCUGAUGAGUCCUCAGUGGGACGAAACAGC [UCAGUG]	-0.446 ± 0.02	1.669 ± 0.0062	-0.142 ± 0.12	1.83 ± 0.15
GCUGUCACCGAGAAACUGUGAAGUAUAUCUUAAACCUGGGCACUUAAAAGAUAUAUGGAGUUAGUAGUGCAACCUGCUCGGUCUGAUGAGUCCCCUGGCGGACGAAACAGC [CCUGGC]	-0.646 ± 0.017	1.68 ± 0.034	-0.459 ± 0.0093	1.82 ± 0.14
GCUGUCACCGAGAAACUGUGAAGUAUAUCUUAAACCUGGGCACUUAAAAGAUAUAUGGAGUUAGUAGUGCAACCUGCUCGGUCUGAUGAGUCCGACAGAGGACGAAACAGC [GACAGA]	-0.179 ± 0.21	1.52 ± 0.065	0.0814 ± 0.049	1.7 ± 0.068

— the supplement of paper PMC6757056
